Data from patent CN105646705A.

Target: 原核表达的重组人GFAP蛋白 (PET28a-GFAP, 大肠杆菌BL21表达, Ni-NTA纯化) (human) (UniProt P14136)
Test: direct ELISA, purified GFAP coated at 10 μg/ml, purified antibody diluted 1:200 to 1:12800, goat anti-mouse IgG-HRP, OD450

Sequence of UniProt P14136 (P14136 other isoform, or with tags, fused parts or gaps): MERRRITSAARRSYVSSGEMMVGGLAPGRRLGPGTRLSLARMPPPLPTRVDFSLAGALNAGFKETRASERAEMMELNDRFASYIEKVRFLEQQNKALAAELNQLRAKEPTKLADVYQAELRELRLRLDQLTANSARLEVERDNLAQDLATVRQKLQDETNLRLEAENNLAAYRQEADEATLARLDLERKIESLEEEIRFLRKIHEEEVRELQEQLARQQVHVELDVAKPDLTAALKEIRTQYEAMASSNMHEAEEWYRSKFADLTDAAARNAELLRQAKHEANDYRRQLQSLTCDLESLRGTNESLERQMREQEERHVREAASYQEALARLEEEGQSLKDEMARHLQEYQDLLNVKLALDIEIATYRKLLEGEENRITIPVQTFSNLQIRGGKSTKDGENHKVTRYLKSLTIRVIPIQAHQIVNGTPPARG

B1: 小鼠抗人GFAP单克隆抗体 5C8 (杂交瘤细胞株5C8, CGMCC No.6915) (antibody, part only; not given: light chain variable region, V domains shown, part only)
VH: LASTATGVHSQVQLQQPGAELVRPGASVKLSCKASGYTFTSYWMNWVKQRPGQGLEWIGMINPSDSEIQYNQMFKDKATLTVDKSSSTAYIHLTSLTSEDSAVYYCARGLGRYWGQGTTLTVSPASTTPPSV
  ELISA滴度 (dilution factor (1:x)): > 10000
